Residue numbers refer to the chain shown, from its start. Numbers in names are those of the source.
T1: soluble human FcγRIIb (human, UniProt P31994 43-217, limits assumed)
T1 construct: soluble His-tagged form; also called hFcγRIIb
T1 sequence (looked up): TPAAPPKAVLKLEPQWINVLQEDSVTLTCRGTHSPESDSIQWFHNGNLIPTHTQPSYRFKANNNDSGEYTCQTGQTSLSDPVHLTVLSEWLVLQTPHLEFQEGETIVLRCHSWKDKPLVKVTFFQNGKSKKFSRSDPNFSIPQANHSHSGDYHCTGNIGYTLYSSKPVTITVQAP

B1: Ab1H/Ab1L011 (antibody, human IgG1, kappa)
heavy: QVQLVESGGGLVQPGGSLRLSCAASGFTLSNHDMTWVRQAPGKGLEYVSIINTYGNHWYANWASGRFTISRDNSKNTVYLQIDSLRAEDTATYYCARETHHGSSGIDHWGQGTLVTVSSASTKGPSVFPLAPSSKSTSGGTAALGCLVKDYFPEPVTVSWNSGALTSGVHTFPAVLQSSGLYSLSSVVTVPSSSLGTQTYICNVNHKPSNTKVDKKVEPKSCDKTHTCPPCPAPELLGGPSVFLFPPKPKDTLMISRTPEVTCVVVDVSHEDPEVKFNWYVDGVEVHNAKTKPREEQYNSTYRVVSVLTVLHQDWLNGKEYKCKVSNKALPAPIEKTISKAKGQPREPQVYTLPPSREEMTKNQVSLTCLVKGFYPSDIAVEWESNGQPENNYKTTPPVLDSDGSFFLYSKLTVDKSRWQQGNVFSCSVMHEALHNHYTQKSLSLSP
light: DIQMTQSPSSVSASVGDRVTITCQASESIYSGLAWYQQKPGQPPKLLIYDHKTLAKGVPSRFSGSGSGTEYALTISSLQPEDFATYYCQHADYAHHSDNVFGGGTKVEIKRTVAAPSVFIFPPSDEQLKSGTASVVCLLNNFYPREAKVQWKVDNALQSGNSQESVTEQDSKDSTYSLSSTLTLSKADYEKHKVYACEVTHQGLSSPVTKSFNRGEC
notes: copies: 2 + 2
B2: Ab1H/Ab1L012 (antibody, human IgG1, kappa)
heavy: not shown
light: B1 light with K52S, K56S, S65R, T69R
notes: copies: 2 + 2
B3: Ab1H/Ab1L013 (antibody, human IgG1, kappa)
heavy: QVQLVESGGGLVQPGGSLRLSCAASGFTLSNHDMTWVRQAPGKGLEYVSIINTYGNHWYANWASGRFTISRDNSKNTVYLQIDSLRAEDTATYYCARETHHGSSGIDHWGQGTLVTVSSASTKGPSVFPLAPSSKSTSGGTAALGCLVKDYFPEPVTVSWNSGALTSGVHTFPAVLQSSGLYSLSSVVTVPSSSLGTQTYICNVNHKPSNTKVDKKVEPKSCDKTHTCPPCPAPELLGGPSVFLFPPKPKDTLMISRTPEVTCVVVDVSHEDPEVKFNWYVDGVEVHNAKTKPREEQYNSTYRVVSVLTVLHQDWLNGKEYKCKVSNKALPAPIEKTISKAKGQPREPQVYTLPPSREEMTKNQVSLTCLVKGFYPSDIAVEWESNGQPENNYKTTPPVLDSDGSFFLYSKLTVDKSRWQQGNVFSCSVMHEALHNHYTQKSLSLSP
light: B1 light with K52S, K56S, T74K, S77R
notes: copies: 2 + 2
B4: Ab1H/Ab1L014 (antibody, human IgG1, kappa)
heavy: not shown
light: B1 light with K52S, K56S, S76R, Q79K
notes: copies: 2 + 2
B5: Ab1H/Ab1L015 (antibody, human IgG1, kappa)
heavy: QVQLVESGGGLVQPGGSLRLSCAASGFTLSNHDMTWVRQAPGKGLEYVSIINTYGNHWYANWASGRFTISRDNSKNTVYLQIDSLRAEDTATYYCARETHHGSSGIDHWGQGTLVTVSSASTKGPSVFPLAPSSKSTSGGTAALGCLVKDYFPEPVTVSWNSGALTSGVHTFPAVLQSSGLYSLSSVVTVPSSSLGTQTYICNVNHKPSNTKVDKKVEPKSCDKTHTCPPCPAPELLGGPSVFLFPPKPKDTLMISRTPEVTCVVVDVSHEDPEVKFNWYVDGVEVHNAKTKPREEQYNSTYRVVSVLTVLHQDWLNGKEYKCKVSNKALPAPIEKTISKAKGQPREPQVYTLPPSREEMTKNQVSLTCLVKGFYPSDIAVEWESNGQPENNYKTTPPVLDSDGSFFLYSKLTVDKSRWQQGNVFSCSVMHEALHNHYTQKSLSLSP
light: B1 light with G16K, Q24R, E27R, K52S, K56S
notes: copies: 2 + 2
B6: Ab1H/Ab1L016 (antibody, human IgG1, kappa)
heavy: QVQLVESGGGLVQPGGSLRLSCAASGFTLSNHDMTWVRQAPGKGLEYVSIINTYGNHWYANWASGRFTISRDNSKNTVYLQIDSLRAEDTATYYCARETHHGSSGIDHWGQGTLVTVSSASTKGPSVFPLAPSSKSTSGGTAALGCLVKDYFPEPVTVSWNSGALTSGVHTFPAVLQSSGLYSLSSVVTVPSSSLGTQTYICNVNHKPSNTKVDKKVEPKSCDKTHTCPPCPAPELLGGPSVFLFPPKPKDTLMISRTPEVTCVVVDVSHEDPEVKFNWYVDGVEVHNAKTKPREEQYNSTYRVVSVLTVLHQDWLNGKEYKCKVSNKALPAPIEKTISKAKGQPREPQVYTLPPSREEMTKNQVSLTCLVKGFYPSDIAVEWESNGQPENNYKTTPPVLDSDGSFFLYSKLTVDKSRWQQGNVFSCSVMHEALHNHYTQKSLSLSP
light: B1 light with Q24R, E27R, Q37R, K52S, K56S
notes: copies: 2 + 2
B7: Ab1H/Ab1L017 (antibody, human IgG1, kappa)
heavy: not shown
light: B1 light with Q24R, E27R, G41R, Q42K, K52S, K56S
notes: copies: 2 + 2
B8: Ab1H/Ab1L018 (antibody, human IgG1, kappa)
heavy: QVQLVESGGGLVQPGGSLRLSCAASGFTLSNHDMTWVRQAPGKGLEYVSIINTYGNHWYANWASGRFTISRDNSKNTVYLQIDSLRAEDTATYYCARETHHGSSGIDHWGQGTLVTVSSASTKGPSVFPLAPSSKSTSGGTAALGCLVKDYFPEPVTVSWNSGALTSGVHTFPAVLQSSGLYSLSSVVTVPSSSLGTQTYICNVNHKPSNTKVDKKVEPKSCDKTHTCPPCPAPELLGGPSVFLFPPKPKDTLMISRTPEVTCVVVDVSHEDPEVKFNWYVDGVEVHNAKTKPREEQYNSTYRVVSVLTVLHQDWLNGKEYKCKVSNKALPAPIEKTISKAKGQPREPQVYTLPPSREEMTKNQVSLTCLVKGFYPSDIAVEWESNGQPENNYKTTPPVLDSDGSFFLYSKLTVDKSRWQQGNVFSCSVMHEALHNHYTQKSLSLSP
light: B1 light with Q24R, E27R, L46R, Y49K, K52S, K56S
notes: copies: 2 + 2
B9: Ab1H/Ab1L019 (antibody, human IgG1, kappa)
heavy: not shown
light: B1 light with Q24R, E27R, K52R, K56R
notes: copies: 2 + 2
B10: Ab1H/Ab1L020 (antibody, human IgG1, kappa)
heavy: not shown
light: B1 light with Q24R, E27R
notes: copies: 2 + 2
B11: Ab1H/Ab1L021 (antibody, human IgG1, kappa)
heavy: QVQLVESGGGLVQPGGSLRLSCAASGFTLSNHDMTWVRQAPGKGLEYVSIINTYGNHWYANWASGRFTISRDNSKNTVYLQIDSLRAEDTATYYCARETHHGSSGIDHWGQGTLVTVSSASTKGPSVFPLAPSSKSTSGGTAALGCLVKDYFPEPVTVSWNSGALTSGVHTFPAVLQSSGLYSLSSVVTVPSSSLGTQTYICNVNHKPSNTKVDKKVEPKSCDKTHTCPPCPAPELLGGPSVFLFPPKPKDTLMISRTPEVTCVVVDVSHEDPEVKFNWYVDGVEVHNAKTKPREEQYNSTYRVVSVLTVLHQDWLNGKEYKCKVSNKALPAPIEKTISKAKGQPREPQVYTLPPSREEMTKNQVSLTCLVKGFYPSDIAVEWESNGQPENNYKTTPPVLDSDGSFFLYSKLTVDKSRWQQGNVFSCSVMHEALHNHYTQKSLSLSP
light: B1 light with Q24R, E27R, K52S, K56S, S65R, T69R
notes: '169R' read as T69R; copies: 2 + 2
B12: Ab1H/Ab1L022 (antibody, human IgG1, kappa)
heavy: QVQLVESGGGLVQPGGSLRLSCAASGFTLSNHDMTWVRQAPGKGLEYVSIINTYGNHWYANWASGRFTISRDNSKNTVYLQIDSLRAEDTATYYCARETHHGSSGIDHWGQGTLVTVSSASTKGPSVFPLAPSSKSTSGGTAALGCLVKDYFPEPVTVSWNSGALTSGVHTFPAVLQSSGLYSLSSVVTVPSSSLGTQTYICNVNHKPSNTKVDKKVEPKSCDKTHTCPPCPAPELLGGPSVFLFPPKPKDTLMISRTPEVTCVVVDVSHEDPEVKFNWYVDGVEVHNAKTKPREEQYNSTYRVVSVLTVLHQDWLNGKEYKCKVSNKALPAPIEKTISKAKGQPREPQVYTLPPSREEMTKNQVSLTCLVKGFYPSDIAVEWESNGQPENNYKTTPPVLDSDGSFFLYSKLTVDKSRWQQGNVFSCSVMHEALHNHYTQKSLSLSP
light: B1 light with Q24R, E27R, K52S, K56S, T74K, S77R
notes: copies: 2 + 2
B13: Ab1H/Ab1L023 (antibody, human IgG1, kappa)
heavy: not shown
light: B1 light with Q24R, E27R, K52S, K56S, S76R, Q79K
notes: copies: 2 + 2
B14: Ab1H/Ab1L025 (antibody, human IgG1, kappa)
heavy: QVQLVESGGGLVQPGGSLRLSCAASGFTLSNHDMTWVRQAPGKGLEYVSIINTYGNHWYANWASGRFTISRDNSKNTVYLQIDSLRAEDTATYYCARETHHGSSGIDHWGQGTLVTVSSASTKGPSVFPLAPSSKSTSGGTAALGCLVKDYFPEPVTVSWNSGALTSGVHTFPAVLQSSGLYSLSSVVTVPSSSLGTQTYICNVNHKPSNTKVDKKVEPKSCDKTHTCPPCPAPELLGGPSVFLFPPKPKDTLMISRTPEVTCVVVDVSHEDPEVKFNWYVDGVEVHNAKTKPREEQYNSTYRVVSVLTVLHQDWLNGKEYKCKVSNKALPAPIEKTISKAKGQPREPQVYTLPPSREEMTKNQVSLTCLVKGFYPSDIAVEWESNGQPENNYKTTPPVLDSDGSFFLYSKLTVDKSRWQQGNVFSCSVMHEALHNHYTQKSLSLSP
light: B1 light with A25R, S26R, Q37R, K52S, K56S
notes: copies: 2 + 2
B15: Ab1H/Ab1L028 (antibody, human IgG1, kappa)
heavy: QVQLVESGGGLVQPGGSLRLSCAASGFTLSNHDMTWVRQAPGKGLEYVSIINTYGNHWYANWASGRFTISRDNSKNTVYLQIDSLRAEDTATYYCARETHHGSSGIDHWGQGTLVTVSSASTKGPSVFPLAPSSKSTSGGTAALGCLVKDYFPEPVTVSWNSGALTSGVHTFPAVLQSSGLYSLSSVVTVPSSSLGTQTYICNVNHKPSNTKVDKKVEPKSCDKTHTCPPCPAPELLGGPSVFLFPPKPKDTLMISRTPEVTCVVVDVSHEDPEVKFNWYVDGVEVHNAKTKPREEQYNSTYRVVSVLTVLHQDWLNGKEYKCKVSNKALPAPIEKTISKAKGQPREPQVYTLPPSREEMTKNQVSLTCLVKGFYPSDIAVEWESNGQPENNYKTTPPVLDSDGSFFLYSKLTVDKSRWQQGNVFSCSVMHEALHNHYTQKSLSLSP
light: B1 light with A25R, S26R, K52R, K56R
notes: copies: 2 + 2
B16: Ab1H/Ab1L029 (antibody, human IgG1, kappa)
heavy: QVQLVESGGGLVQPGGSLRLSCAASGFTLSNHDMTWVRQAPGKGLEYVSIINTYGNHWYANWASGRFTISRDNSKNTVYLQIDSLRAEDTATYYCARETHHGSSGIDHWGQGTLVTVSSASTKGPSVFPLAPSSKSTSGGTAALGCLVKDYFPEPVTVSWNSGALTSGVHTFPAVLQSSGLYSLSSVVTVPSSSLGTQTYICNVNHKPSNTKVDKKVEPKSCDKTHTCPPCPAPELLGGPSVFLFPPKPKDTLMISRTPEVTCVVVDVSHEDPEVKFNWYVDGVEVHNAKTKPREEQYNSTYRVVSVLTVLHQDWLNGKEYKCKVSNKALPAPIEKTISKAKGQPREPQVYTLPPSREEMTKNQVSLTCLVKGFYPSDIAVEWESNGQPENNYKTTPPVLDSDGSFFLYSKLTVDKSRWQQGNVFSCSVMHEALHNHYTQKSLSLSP
light: B1 light with A25R, S26R
notes: copies: 2 + 2
B17: Ab1H/Ab1L030 (antibody, human IgG1, kappa)
heavy: not shown
light: B1 light with A25R, S26R, K52S, K56S, S65R, T69R
notes: copies: 2 + 2
B18: Ab1H/Ab1L033 (antibody, human IgG1, kappa)
heavy: not shown
light: B1 light with Q24R, E27R, G41R, Q42K, K52S, K56S, S65R, T69R
notes: copies: 2 + 2
B19: Ab1H/Ab1L034 (antibody, human IgG1, kappa)
heavy: not shown
light: B1 light with Q24R, E27R, K52R, K56R, S65R, T69R
notes: copies: 2 + 2
B20: Ab1H/Ab1L035 (antibody, human IgG1, kappa)
heavy: not shown
light: B1 light with Q24R, E27R, K52S, K56S, S65R, T69R, T74K, S77R
notes: copies: 2 + 2
B21: Ab1H/Ab1L036 (antibody, human IgG1, kappa)
heavy: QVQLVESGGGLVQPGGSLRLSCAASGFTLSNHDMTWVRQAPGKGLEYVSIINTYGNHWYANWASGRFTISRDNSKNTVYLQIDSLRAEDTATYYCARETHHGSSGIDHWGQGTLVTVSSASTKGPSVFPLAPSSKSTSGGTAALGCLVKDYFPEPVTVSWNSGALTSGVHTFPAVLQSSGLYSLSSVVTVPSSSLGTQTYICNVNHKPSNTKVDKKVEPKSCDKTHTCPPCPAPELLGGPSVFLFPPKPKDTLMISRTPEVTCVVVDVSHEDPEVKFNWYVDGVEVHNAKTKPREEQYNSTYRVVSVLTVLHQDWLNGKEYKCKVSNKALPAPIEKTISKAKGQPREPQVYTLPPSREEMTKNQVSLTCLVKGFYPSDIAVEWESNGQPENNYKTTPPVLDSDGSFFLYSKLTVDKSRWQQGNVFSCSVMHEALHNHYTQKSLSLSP
light: B1 light with Q24R, E27R, K52S, K56S, S65R, T69R, S76R, Q79K
notes: copies: 2 + 2

Biological target: T1, soluble human FcγRIIb
Experiment: SPR, Ab-IgE complex over captured hFcγRIIb, pH 7.4, 25C
Description: Regarding the produced Fc region variant-containing antibodies, binding assays between soluble human FcγRIIb and antigen-antibody complexes were performed using BIACORE T200 (GE Healthcare). Soluble human FcγRIIb (NCBI accession NM_004001.3) was produced in the form of a His-tagged molecule by a method known in the art. An appropriate amount of an anti-His antibody was fixed onto Sensor chip CM5 (GE Healthcare) by the amine coupling method using a His capture kit (GE Healthcare) to capture human FcγRIIb. Next, an antibody-antigen complex and a running buffer (as a reference solution) were injected, and interaction was allowed to take place with the human FcγRIIb captured onto the sensor chip. 20 mM N-(2-Acetamido)-2-aminoethanesulfonic acid, 150 mM NaCl, 1.2 mM CaCl₂, and 0.05% (w/v) Tween 20 at pH 7.4 was used as the running buffer, and the respective buffer was also used to dilute the soluble human FcγRIIb. To regenerate the sensor chip, 10 mM glycine-HCl at pH 1.5 was used. All measurements were carried out at 25° C. Analyses were performed based on binding (RU) calculated from sensorgrams obtained by the measurements, and relative values when the binding amount of Ab1H/Ab1L (original Ab1) was defined as 1.00 are shown. To calculate the parameters, the BIACORE T100 Evaluation Software (GE Healthcare) was used.

Binder | BIACORE fold (relative binding, original Ab1=1.00) [fold]
B1 | 1.02
B2 | 0.97
B3 | 1.7
B4 | 1.08
B5 | 1.25
B6 | 1.36
B7 | 1.27
B8 | 0.07
B9 | 1.17
B10 | 1.22
B11 | 1.36
B12 | 1.45
B13 | 1.39
B14 | 1.39
B15 | 1.46
B16 | 1.23
B17 | 1.16
B18 | 1.26
B19 | 1.71
B20 | 1.49
B21 | 1.48

From US20180258163A1 (Chugai, published 2018)
